Measured values taken from the DeepSol protein solubility set.

Experiment: soluble on expression in E. coli; label from the status in PepcDB or PDB records

Row | Sequence | soluble on expression in E. coli
1 | GMSQRIGVIDMGTNTFHLLITDIVNDRPHTLVNEKSAVGLGKGGITKGFITEEAMDRALDTLKKFRVILDEHAVVHVIATGTSAVRSGSNKQVLIDRIKKEVNIDVEVIDGAREAELIFRGVQQAVPMEDHISLAMDIGGGSVEFIIGNKNEILWKQSFEIGGQRLIDRFHVHDPMREDDRVMMHNYFDEVLVPLEKAINTWRPTQLIGCSGTFDTLAEMNIQHHREKIALEKQTSYLLSLPDFNRLRKQLVASTRRERLAIAGMIELRADMVVVAICLIEHVLKLVSTNAITVSTYSLKEGVLYTMLDGVKVGS | soluble
2 | MGSDKIHHHHHHMIDVIIVGGGPTGTMLASELRLHGVHTVVVEKRAEPTRIVRGLGLHVRSIEIMDQRGLLERFLAHGTKHPVGGYFAGIMKPWPKSLDTAHPYILGIPQPTTDRLLEERASELGADIRRGWELVGLSQDEDGVTAQLADGTQLRARYLVGCDGGRSTVRTLLGVGFPGESATTEWLLGEVKATASPETVAAVMAKVRQTQLGFAMGPLDDGVYRAVVPAAHVSEDRAAPPTLEEFAQRLREVTGTDFGVHSPRWLSRFNDATRQAERYRVGRVLLAGDAAHIHAPLGGQGLNLGIQDAFNLGWKLAAAVNGWAPEGLLDSYHTERHPVAAEVLDNTLAQSAFMSTDPRARAAHRLLLELMDFEEVNRHVMEKITAVGVRYDFGDGHALLGRRLRDVRLGQGRLYERMRHGRGVLLDRTGRLSVAGWADRVDHVADSAAEIDVPALLLRPDGHVAWIGEDQDDLLAHLPRWFGDPAA | not soluble
3 | MNETIRRILAESGTKTSKIRKLLLIGLSHREIADLLTRGNRGFVWNVYKRMRDEGLLPASQTATVLRPEPDYTFNRCFGVEIEAYNCPRQTLTDALREAGIPVEIGSRNAETNSNWKLTTDGSLEGSHTFELVSPILCGEQGLEVLERVCWVLDAYNVKINSSCGVHVHFNAGDFNLTTWQNLILSYKHAETEIDKFMPASRRGNRNTYCRSLRGFSDEDIRSAESIESLQRLFGSRYMKVNLEAYSRHRTVEFRQHSGTINFTKIENWVRFLGRMIIFASTASLPAGIRLEDFPFLGEKQKLYYKLRTKKLMV | not soluble
4 | GMEPLKVEKFATANRGNGLRAVTPLRPGELLFRSDPLAYTVCKGSRGVVCDRCLLGKEKLMRCSQCRVAKYCSAKCQKKAWPDHKRECKCLKSCKPRYPPDSVRLLGRVVFKLMDGAPSESEKLYSFYDLESNINKLTEDRKEGLRQLVMTFQHFMREEIQDASQLPPAFDLFEAFAKVICNSFTICNAEMQEVGVGLYPSISLLNHSCDPNCSIVFNGPHLLLRAVRDIEVGEELTICYLDMLMTSEERRKQLRDQYCFECDCFRCQTQDKDADMLTGDEQVWKEVQESLKKIEELKAHWKWEQVLAMCQAIISSNSERLPDINIYQLKVLDCAMDACINLGLLEEALFYGTRTMEPYRIFFPGSHPVRGVQVMKVGKLQLHQGMFPQAMKNLRLAFDIMRVTHGREHSLIEDLILLLEECDANIRAS | soluble
5 | MTDRYSFSLTTFSPSGKLGQIDYALTAVKQGVTSLGIKATNGVVIATEKKSSSPLAMSETLSKVSLLTPDIGAVYSGMGPDYRVLVDKSRKVAHTSYKRIYGEYPPTKLLVSEVAKIMQEATQSGGVRPFGVSLLIAGHDEFNGFSLYQVDPSGSYFPWKATAIGKGSVAAKTFLEKRWNDELELEDAIHIALLTLKESVEGEFNGDTIELAIIGDENPDLLGYTGIPTDKGPRFRKLTSQEINDRLEAL | soluble
6 | MTVYKGSKKEAKPKECLLFFDKKTNTVRLEKITSNINVKKTRDLDQGTELALKRGIERLRTSSNNQRSGPSSPEEKAKIQKQMQRDTSDSSSDSDGSSDSDKSNGDSSDDEDESEKILLEEMKKPKPYTEREPAPPSSSNTYNHKESHVAPYISSSGNKNKDSEEKYGLALSESSDEDD | not soluble
7 | MSLYIHQTACISAQPAFADPASDHVAAAVDNKLYAIDSNYDSIPPNVLRRLGKAVKMGIATGHSLISKHPVDGIVLGTANGGLEDCIKFLNQIIEFEEGRLTPTNFVQSTTNAIAGQLGIMSSNKGYNITHVHRGLAFENALIDIEMLLNEYPSNTYLLGGVDEISAYNYTIEKLAGTYKSETISSAQLFSSQTTGTIAGEGAAMFLVNTNRLNAAAAIKGIKTYNNPSPEAIKKHLEDFLAKHLPQNEKIDVLFSGKNGDVCLNSFYEVCAQQLGKETTVCYYKQLTGDFPTVTALALWFATRFIEDSNNLPVLNIKKTGAVKNILLYNTYKGYQHSFILVSEGHHHHHH | not soluble
8 | QKKVNVTGAVGMVSAEALEARPVANASQALQGVVPGLNLTVGNNGGALDGTLNMNIRGAGTIGDGSGSSPLVLIDGIEGDLNTVNPNDIESVSVLKDAASASIYGARASFGVILVTTKSGKSG | not soluble
9 | DDKLRIGGTALFKRDRFVDNIGIEDSFFLKLMVDEMKQTTHQFQIDEDGEKAYVVVEKIFSSFNREMTGSMEAPHFRCHIHFRGEITDYTGPLTLTKDETMNKIEEGMARQIETKGEELLKRFQSLGIDPVGLGEKYRSHTRDWKPGVWHDSIYEQATVEVTAEVEIVQSGVTE | not soluble
10 | MPRVWKFGDQINTDDILPGKYAPFMVGEDRFHLYAFAHLRPEFAKEVRPGDILVFGRNAGLGSSREYAPEALKRLGIRAIIAKSYARIFFRNLVNLGIVPFESEEVVDALKDGDEVELDLESGVLTRGEERFLLRPPPPFLLEALKEGSLLDYYKKHGRFPGE | soluble
11 | MRGSHHHHHHKHGQFTLRDMYEQFQNIMKMGPFSQILGMIPGFGTDFMSKGNEQESMARLKKLMTIMDSMNDQELDSTDGAKVFSKQPGRIQRVARGSGVSTRDVQELLTQYTKFAQMVKKMGGIKGLF | soluble
12 | MASQQQTVREWSGINTFAPATQTKLLELLGNLKQEDVNSLTILVMGKGGVGKSSTVNSIIGERVVSISPFQSEGPRPVMVSRSRAGFTLNIIDTPGLIEGGYINDMALNIIKSFLLDKTIDVLLYVDRLDAYRVDNLDKLVAKAITDSFGKGIWNKAIVALTHAQFSPPDGLPYDEFFSKRSEALLQVVRSGASLKKDAQASDIPVVLIENSGRCNKNDSDEKVLPNGIAWIPHLVQTITEVALNKSESIFVDKNLIDKLAAADHHHHHH | soluble
13 | MLSRKKTKNEVSKPAEVQGKYVKKETSPLLRNLMPSFIRHGPTIPRRTDLCLPDSSATAFSASGDGIVSRNQSFLRTAIQRTPHEVMRRESHRLSAPSYLVRSLADVPRECGSSQSFLTEVNFAVENGDSGSRYFFSDNFFDGQRRRPLGDRAQEDYRYYEYNHDLFQRMPQSQGRHTSGIGRVTATSLGNLTNHGSEDLPLPPGWSVDWTMRGRKYYIDHNTNTTHWSHPLEREGLPPGWERVESSEFGTYYVDHTNKRAQYRHPCAPSVPRYDQPPPITYQPQQTERNQSLLVPANPYHTAEIPDWLQVYARAPVKYDHILKWELFQLADLDTYQGMLKLLFMKELEQIVKLYEAYRQALLTELENRKQRQQWYAQQHGKTFLS | soluble
14 | GPGSMDYPKKNQAAPAEGQTVRLTITSRNAKAVESVTSQLLTRARDEKVTIHGPVRLPTRTLKITTRKTPCGNGTNTWDTFELKIYKRIIDLHAPTEQVKKITSFTMESGVDVSITILDR | soluble
15 | FSNAPISAEEQMIRAFVKSVEYMSPRKIGALVAIQRVRTLQEYISTGIPLDAKISAELLINIFIPNTPLHDGAVIIKEERIAVTSAYLPLTKNTGISKEFGTRHRAAIGLSEVSDALTFVVSEETGGISITYNGRFKHNL | not soluble
16 | MGSDKIHHHHHHMTQPFKDAISICKTILRNGYDAYVVNMRLQSELMAEDKRMEIDLACECDFDEIARLFPNATRSDEEGVLAMLEEGGVAHRFYLTDTEESSYPDRTLMRITPHMVARLQALGKAHSSLTLPYGAAAPHDSDDFESFDKGIIRLRGLPDETLRRNYLLAVRAIRYAANLDMEIDPVTWIAIVRSAGRVLDYVPVSDIVAEWQMVEAETMWKFVRLLFDAQLLHGLLPEVAALARVRQSRNDSGDTETVLDHTIECMRHYPEEGFHHDWYGTLAMLFHDVGKLFTADFHDGQWTFYQHHRVGAKVTRRLLHRLHLPAQEVDLICHLVRHHMRFHFMLTDKGIRRFAALDEYPRLMEMARADIKARDGSYTYFNHNQKYLERAATPEQMLEPLLNGNEIMQHTGLHPGPQVGLIRDALLNAQVTGAVADVNDAVAFIKEYKRQYFS | not soluble
17 | VIIDTSALLAYFDAAEPDHAAVSECIDSSADALVVSPYVVAELDYLVATRVGVDAELAVLRELAGGAWELANCGAAEIEQAARIVTKYQDQRIGIADAANVVLADRYRTRTILTLDRRHFSALRPIGGGRFTVIP | not soluble
18 | MDWGMQSRLSWIFNPKTGKTVMLAFDHGYFQGPTIGLERIDINIAPLFEHADVLMCTRGILRSVVPPATNKPVVLRASGANSILAELSNEAVALSMDDAVRLNSCAVAAQVYIGSEYEHQSIKNIIQLVDAGMKVGMPTMAVTGVGKDMVRDQRYFSLATRIAAEMGAQIIKTYYVEKGFERIVAGCPVPIVIAGGKKLPERETLEMCWQAIDQGASGVDMGRNIFQSDHPVAMMKAVQAVVHHNETADRAYELYLSEKQ | not soluble
19 | MKQLYATIRFNGYEEAADKGDLAVHKLVAAALDDAEASLKDLFAQQIFGDGTGNSGKDLTGLKAYVDDGTAVAVYGGIDRATNPWWKANVKKSANNKVLDIKQMREVFAKCSRGGMENKPDFIVTDLNTWLQYAELVDGKTTIQQPLGKVAEEFANLGFAQLSFMGIPVVYDEYCPAYTMYFINSNTFQLYGKPGRMFTTSEIVKIPDEDSKVGQIFFAGEFVGTEPRANGRLDLTVS | not soluble
20 | SPAAVASALEGCREPVPGIRCRDAFSAASGIIDKMACVPELAVSEISAPRIVSSLAGDGHALFVANSMPARDMDLYAAPVAQKPLQVALNRGVSGIDGIISTAAGFSAGLGKPTTLLIGDISFLHDLNALCLLNHPWNPLIVIVLNNHGGSIFSFLPIASQTDRLDECFATPQNFSIESAARTFGIDYACPETNGDFTQLYAEALTTKKSLIIEIRSDREKNLLLHRSLKARLDPVFEKADC | not soluble
21 | MAHHHHHHMVQRTLLDFVRKKDPSPNVINVDAESDEQDEAASRKRRMQGVREPALAFTKPRTENKDDICCSNNFSALITDSGWRAFLQPLTSTTNFRNIEQFIEGEKTKGKVILPPSDLIFSAFNSTPLDRLKVVLLGQDPYHNIGQAHGLCFSVLPGVRPPPSLLNMYKELTTDISGFKSPPHGYLQCWAEQGVLMLNATLTVEAHQANSHAKCGWQAFTDGVIRLLSEKHQRPIVFLLWGGFARKKITLIDQKRHLVIENAHPSPLSAAKWWGSRPFSKCNAALTQLGHSPIDWSIPMSVERRH | not soluble
22 | MTEEFEIAGISTGAWWSSPTNTAAVFSGYSLPCSTEISPDVTNFGWQNFDNKINDHNDGCMNMHNSFFEGLLIDPNDQLLPDPWSKSTIPNAKSELLENFPFLDNMFLVDSEAESLLDHEIRNHKSSKEQITQDYKNLTSKAQLEENSDEYSPRLLKRPRLETLSPLPSFKVRKEKLGDRITALQQLVSPFGKTDTASVLNEAVEYIKFLQEQVTVLSNPEQNTIGSVQQQQCSNKKSINTQGEVEEDECSPRRYVDLSSRGLCLMPISASYPVAAAAASAAEMNVHLVSGIFHSL | soluble
23 | MSLNRVSHPLTYENFKTSSAEQESKITKLLENLYKGGKRIVKLRNDPTGVTHAIRLDNDIFKLNVYIKNIDTSKSNLRYTEGYLQSLTNILTRAKEIAIQGASGTYESDDKKMISKEVNALLEDVVAIANAKGPDGYSIFSGTKIDSEAFKVTRENKISKTSKDGAGPQIIKVEYNGNQAEKKTEVYNDIHMSNNYPGNVIFFLQNQNIISSINTNGFAVKENTKIYIDNIEIGLTAGDTALDIVAKINESSAPVEASIDPVLNSLSIKTTTPHQIWITEEKESNVLQTLGILTKNNDTKLPPYNLSSSTEVRSRSIFDALIELRDTLYNNKEELVGSRSLAEIDESLKRLLISVADLGAKENRLDRSYERISKEAADMKEDMIQYTDEGHHHHHH | soluble
